This passage reports IC50 of suppression of hepcidin mRNA (qPCR) in Hep3B cells results from publication PMC10692919.

For this experiment, the target named is BMPs (in the Hep3B hepcidin bioassay).

B1: Full-length ERFE ΔCollagen, 43-354 del109-125, FLAG-tagged (natural protein)
chain: EPPPGNELPRGPGESRAGPAARPPEPTAERAHSVDPRDAWMLFVRQSDKGVNGKKRSRGKAKKLKFIIPPEALLKEFQLLLKGAVRQRERAEPEPCTCGPAGPVAASLAPVSATAGEDDDDVVGDVLALLAAPLAPGPRAPRVEAAFLCRLRRDALVERRALHELGVYYLPDAEGAFRRGPGLNLTSGQYRAPVAGFYALAATLHVALGEPPRRGPPRPRDHLRLLICIQSRCQRNASLEAIMGLESSSELFTISVNGVLYLQMGQWTSVFLDNASGCSLTVRSGSHFSAVLLGV
Molecule B1 came in with an IC50 of suppression of hepcidin mRNA (qPCR) in Hep3B cells of 10 nM.
